Assay results from patent US20220333113.
Numbering of substitutions follows the chain as printed.

What was measured:
Assay in all cases: filter
Conditions in all cases: J = PPdU at every J; SB18T0.01 + 1 mM DTT, 37 C
[1] = target: T1, RIG-I K888A (Homo sapiens) (UniProt O95786)
T1 sequence: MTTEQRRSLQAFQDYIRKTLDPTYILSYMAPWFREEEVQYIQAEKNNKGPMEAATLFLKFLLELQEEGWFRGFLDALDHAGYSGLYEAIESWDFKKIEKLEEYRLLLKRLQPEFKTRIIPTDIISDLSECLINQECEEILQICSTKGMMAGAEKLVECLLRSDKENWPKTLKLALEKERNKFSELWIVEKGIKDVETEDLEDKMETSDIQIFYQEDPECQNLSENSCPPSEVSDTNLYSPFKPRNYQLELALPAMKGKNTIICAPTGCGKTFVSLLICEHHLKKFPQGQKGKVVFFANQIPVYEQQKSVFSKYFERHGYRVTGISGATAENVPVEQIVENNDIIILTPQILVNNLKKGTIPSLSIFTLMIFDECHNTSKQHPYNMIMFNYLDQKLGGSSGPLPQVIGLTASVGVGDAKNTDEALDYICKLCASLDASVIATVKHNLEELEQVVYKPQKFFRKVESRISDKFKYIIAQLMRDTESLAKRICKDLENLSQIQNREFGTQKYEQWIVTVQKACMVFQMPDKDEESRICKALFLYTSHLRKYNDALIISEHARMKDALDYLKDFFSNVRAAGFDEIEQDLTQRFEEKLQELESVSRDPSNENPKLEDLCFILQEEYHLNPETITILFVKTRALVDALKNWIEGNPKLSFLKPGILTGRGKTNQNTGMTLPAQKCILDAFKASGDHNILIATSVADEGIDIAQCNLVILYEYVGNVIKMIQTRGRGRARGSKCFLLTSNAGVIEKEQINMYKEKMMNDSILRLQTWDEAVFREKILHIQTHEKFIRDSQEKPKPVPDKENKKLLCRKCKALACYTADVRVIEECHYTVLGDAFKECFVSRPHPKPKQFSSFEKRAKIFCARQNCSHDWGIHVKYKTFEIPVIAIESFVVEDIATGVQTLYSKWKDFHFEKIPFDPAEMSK

[2] = target: T2, RIG-I K858A (Homo sapiens) (UniProt O95786)
T2 sequence: T1 sequence with K858A, A888K

[3] = target: T3, RIG-I ΔCARDs (aa 229-925) (Homo sapiens) (UniProt O95786)
T3 sequence: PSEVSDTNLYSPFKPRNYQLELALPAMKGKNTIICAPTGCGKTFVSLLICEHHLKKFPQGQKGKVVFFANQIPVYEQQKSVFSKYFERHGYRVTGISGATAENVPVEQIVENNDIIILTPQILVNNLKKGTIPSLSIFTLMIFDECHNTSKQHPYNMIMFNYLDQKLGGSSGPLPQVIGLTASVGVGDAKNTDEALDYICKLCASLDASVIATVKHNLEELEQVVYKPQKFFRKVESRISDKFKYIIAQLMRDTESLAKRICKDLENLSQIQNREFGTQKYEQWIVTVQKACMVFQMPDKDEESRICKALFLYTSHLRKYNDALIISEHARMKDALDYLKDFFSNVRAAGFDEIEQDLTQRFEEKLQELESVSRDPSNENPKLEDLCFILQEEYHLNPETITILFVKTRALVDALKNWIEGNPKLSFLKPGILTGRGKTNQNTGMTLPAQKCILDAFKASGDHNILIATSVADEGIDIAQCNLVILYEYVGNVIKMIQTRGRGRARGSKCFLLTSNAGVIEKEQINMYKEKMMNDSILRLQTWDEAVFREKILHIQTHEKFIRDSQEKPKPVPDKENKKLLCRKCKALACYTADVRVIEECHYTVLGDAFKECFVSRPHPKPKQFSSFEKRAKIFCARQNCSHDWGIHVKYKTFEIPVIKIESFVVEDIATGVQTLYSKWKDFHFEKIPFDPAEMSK

Q: How did the Kd [1] turn out when “ATCTCTGTGTCATGTGTTTTAATGTCAGTTTAATGATGAGG [14832-55_8]” was run?
A: 0.53 nM

Q: What about the Kd [2] of the same sequence?
A: 2.9 nM

Q: What about the Kd [3] of the same sequence?
A: 0.013 nM
